# According to patent publication US20220064329A1 (Novo Nordisk, published 2022):
# Changes are numbered by the printed parent chain. Names may count otherwise.
# T1: recombinant human activated Factor VII (FVIIa) (human, UniProt P08709 61-212; P08709 213-466, ten glutamate residues of the Gla domain may be gamma-carboxylated)
# T1 construct: chains tethered by a disulfide bond; also called Factor VIIa; rFVIIa
# T1 sequence 1: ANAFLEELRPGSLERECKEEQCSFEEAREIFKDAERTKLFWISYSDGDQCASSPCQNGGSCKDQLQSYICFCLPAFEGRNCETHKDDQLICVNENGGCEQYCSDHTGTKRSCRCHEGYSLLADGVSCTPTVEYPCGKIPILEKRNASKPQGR
# T1 sequence 2: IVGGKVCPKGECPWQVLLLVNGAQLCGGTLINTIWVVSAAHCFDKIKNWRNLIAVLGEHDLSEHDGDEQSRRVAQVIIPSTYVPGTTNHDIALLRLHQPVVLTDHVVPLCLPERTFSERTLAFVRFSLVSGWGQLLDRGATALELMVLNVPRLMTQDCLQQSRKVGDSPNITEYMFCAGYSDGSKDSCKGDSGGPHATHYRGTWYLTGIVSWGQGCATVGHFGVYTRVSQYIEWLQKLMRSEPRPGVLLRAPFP
# B1: VH SEQ ID NO 538 / VL SEQ ID NO 374 (antibody, IgG4, V domains shown)
# VH: QVQLQESGPGLVEPSQTLSLTCTVSGYSITSDSAWSWIRQPPGKKLEWIGYIQYSGSTNYNPSLKSRVTISRDTSKNQFSLKLSSVTAADTAVYYCARSVNYYGNSFAVGYWGQGTLVTVSS
# VL: EIVLTQSPATLSLSPGERATLSCRASQGLSDYLAWYQQKPGQAPRLLIKYTSQPATGIPARFSGSGSGTDFTLTISSLEPEDFAVYYCQNGHSFPLTFGQGTKLEIK
# notes: humanized 11F2; IgG4 S228P/kappa
# B2: VH SEQ ID NO 546 / VL SEQ ID NO 390 (antibody, IgG4, V domains shown)
# VH: B1 VH with L117S
# VL: B1 VL with L29V, Q42E, T51A
# notes: as for B1
# B3: VH SEQ ID NO 546 / VL SEQ ID NO 406 (antibody, IgG4, V domains shown)
# VH: B1 VH with L117S
# VL: B1 VL with L29V, T51A, Q100A
# notes: as for B1
# B4: VH SEQ ID NO 538 / VL SEQ ID NO 414 (antibody, IgG4, V domains shown)
# VH: B1 VH
# VL: B1 VL with L29V, T51A
# notes: as for B1
# B5: VH SEQ ID NO 546 / VL SEQ ID NO 318 (antibody, IgG4, V domains shown)
# VH: B1 VH with L117S
# VL: B1 VL with L29I, A34H, Q42E
# notes: as for B1
# B6: VH SEQ ID NO 538 / VL SEQ ID NO 446 (antibody, IgG4, V domains shown)
# VH: B1 VH
# VL: B1 VL with L29V
# notes: as for B1
# B7: VH SEQ ID NO 538 / VL SEQ ID NO 454 (antibody, IgG4, V domains shown)
# VH: B1 VH
# VL: B1 VL with L29V, A34H, Q42E, T51A
# notes: as for B1
# B8: VH SEQ ID NO 538 / VL SEQ ID NO 494 (antibody, IgG4, V domains shown)
# VH: B1 VH
# VL: B1 VL with L29V, A34H, T51A, F83V
# notes: as for B1
# B9: VH SEQ ID NO 538 / VL SEQ ID NO 422 (antibody, IgG4, V domains shown)
# VH: B1 VH
# VL: B1 VL with L29V, T51A, N90Q
# notes: as for B1
# B10: VH SEQ ID NO 538 / VL SEQ ID NO 390 (antibody, IgG4, V domains shown)
# VH: B1 VH
# VL: B1 VL with L29V, Q42E, T51A
# notes: as for B1
# B11: VH SEQ ID NO 546 / VL SEQ ID NO 310 (antibody, IgG4, V domains shown)
# VH: B1 VH with L117S
# VL: B1 VL with L29I, T51A
# notes: as for B1
# B12: VH SEQ ID NO 538 / VL SEQ ID NO 406 (antibody, IgG4, V domains shown)
# VH: B1 VH
# VL: B1 VL with L29V, T51A, Q100A
# notes: as for B1
# B13: VH SEQ ID NO 546 / VL SEQ ID NO 462 (antibody, IgG4, V domains shown)
# VH: B1 VH with L117S
# VL: B1 VL with L29V, A34H, T51A, Q100A
# notes: as for B1
# B14: VH SEQ ID NO 538 / VL SEQ ID NO 382 (antibody, IgG4, V domains shown)
# VH: B1 VH
# VL: B1 VL with A34H, Q42E, T51A
# notes: as for B1
# B15: VH SEQ ID NO 546 / VL SEQ ID NO 422 (antibody, IgG4, V domains shown)
# VH: B1 VH with L117S
# VL: B1 VL with L29V, T51A, N90Q
# notes: as for B1
# B16: VH SEQ ID NO 538 / VL SEQ ID NO 398 (antibody, IgG4, V domains shown)
# VH: B1 VH
# VL: B1 VL with L29V, Q42E
# notes: as for B1
# B17: VH SEQ ID NO 546 / VL SEQ ID NO 382 (antibody, IgG4, V domains shown)
# VH: B1 VH with L117S
# VL: B1 VL with A34H, Q42E, T51A
# notes: as for B1
# B18: VH SEQ ID NO 546 / VL SEQ ID NO 494 (antibody, IgG4, V domains shown)
# VH: B1 VH with L117S
# VL: B1 VL with L29V, A34H, T51A, F83V
# notes: as for B1
# B19: VH SEQ ID NO 554 / VL SEQ ID NO 326 (antibody, IgG4, V domains shown)
# VH: B1 VH with E13K, Q16D, T23A, T30S, P41F, K45G, I70M, R72V, A89L, Y111P
# VL: B1 VL with L29I, A34H, Q42E, A84G, Q100A, I106L
# notes: as for B1
# B20: VH SEQ ID NO 546 / VL SEQ ID NO 438 (antibody, IgG4, V domains shown)
# VH: B1 VH with L117S
# VL: B1 VL with L29V, T51A, F83V
# notes: as for B1
# B21: VH SEQ ID NO 546 / VL SEQ ID NO 398 (antibody, IgG4, V domains shown)
# VH: B1 VH with L117S
# VL: B1 VL with L29V, Q42E
# notes: as for B1
# B22: VH SEQ ID NO 546 / VL SEQ ID NO 446 (antibody, IgG4, V domains shown)
# VH: B1 VH with L117S
# VL: B1 VL with L29V
# notes: as for B1
# B23: VH SEQ ID NO 538 / VL SEQ ID NO 486 (antibody, IgG4, V domains shown)
# VH: B1 VH
# VL: B1 VL with L29V, A34H, T51A, A84G
# notes: as for B1
# B24: VH SEQ ID NO 538 / VL SEQ ID NO 430 (antibody, IgG4, V domains shown)
# VH: B1 VH
# VL: B1 VL with L29V, T51A, A84G
# notes: as for B1
# B25: VH SEQ ID NO 546 / VL SEQ ID NO 486 (antibody, IgG4, V domains shown)
# VH: B1 VH with L117S
# VL: B1 VL with L29V, A34H, T51A, A84G
# notes: as for B1
# B26: VH SEQ ID NO 546 / VL SEQ ID NO 366 (antibody, IgG4, V domains shown)
# VH: B1 VH with L117S
# VL: B1 VL with Q42E, T51A
# notes: as for B1
# B27: VH SEQ ID NO 546 / VL SEQ ID NO 342 (antibody, IgG4, V domains shown)
# VH: B1 VH with L117S
# VL: B1 VL with L29I, A34H, T69R, Q100A, I106L
# notes: as for B1
# B28: VH SEQ ID NO 546 / VL SEQ ID NO 326 (antibody, IgG4, V domains shown)
# VH: B1 VH with L117S
# VL: B1 VL with L29I, A34H, Q42E, A84G, Q100A, I106L
# notes: as for B1
# B29: VH SEQ ID NO 546 / VL SEQ ID NO 502 (antibody, IgG4, V domains shown)
# VH: B1 VH with L117S
# VL: B1 VL with L29V, A34H
# notes: as for B1
# B30: VH SEQ ID NO 554 / VL SEQ ID NO 318 (antibody, IgG4, V domains shown)
# VH: B1 VH with E13K, Q16D, T23A, T30S, P41F, K45G, I70M, R72V, A89L, Y111P
# VL: B1 VL with L29I, A34H, Q42E
# notes: as for B1
# B31: VH SEQ ID NO 538 / VL SEQ ID NO 470 (antibody, IgG4, V domains shown)
# VH: B1 VH
# VL: B1 VL with L29V, A34H, T51A
# notes: as for B1
# B32: VH SEQ ID NO 546 / VL SEQ ID NO 374 (antibody, IgG4, V domains shown)
# VH: B1 VH with L117S
# VL: B1 VL
# notes: as for B1
# B33: VH SEQ ID NO 538 / VL SEQ ID NO 478 (antibody, IgG4, V domains shown)
# VH: B1 VH
# VL: B1 VL with L29V, A34H, T51A, N90Q
# notes: as for B1
# B34: VH SEQ ID NO 546 / VL SEQ ID NO 358 (antibody, IgG4, V domains shown)
# VH: B1 VH with L117S
# VL: B1 VL with L29I, A34H
# notes: as for B1
# B35: VH SEQ ID NO 546 / VL SEQ ID NO 334 (antibody, IgG4, V domains shown)
# VH: B1 VH with L117S
# VL: B1 VL with L29I, A34H, T51A
# notes: as for B1
# B36: VH SEQ ID NO 538 / VL SEQ ID NO 438 (antibody, IgG4, V domains shown)
# VH: B1 VH
# VL: B1 VL with L29V, T51A, F83V
# notes: as for B1
# B37: VH SEQ ID NO 546 / VL SEQ ID NO 454 (antibody, IgG4, V domains shown)
# VH: B1 VH with L117S
# VL: B1 VL with L29V, A34H, Q42E, T51A
# notes: as for B1
# B38: VH SEQ ID NO 546 / VL SEQ ID NO 350 (antibody, IgG4, V domains shown)
# VH: B1 VH with L117S
# VL: B1 VL with L29I, A34H, Q100A, I106L
# notes: as for B1
# B39: VH SEQ ID NO 538 / VL SEQ ID NO 462 (antibody, IgG4, V domains shown)
# VH: B1 VH
# VL: B1 VL with L29V, A34H, T51A, Q100A
# notes: as for B1
# B40: VH SEQ ID NO 546 / VL SEQ ID NO 478 (antibody, IgG4, V domains shown)
# VH: B1 VH with L117S
# VL: B1 VL with L29V, A34H, T51A, N90Q
# notes: as for B1
# B41: VH SEQ ID NO 538 / VL SEQ ID NO 502 (antibody, IgG4, V domains shown)
# VH: B1 VH
# VL: B1 VL with L29V, A34H
# notes: as for B1
# B42: VH SEQ ID NO 546 / VL SEQ ID NO 414 (antibody, IgG4, V domains shown)
# VH: B1 VH with L117S
# VL: B1 VL with L29V, T51A
# notes: as for B1
# B43: VH SEQ ID NO 546 / VL SEQ ID NO 470 (antibody, IgG4, V domains shown)
# VH: B1 VH with L117S
# VL: B1 VL with L29V, A34H, T51A
# notes: as for B1
# B44: VH SEQ ID NO 546 / VL SEQ ID NO 430 (antibody, IgG4, V domains shown)
# VH: B1 VH with L117S
# VL: B1 VL with L29V, T51A, A84G
# notes: as for B1
# Biological target: T1, recombinant human activated Factor VII …
# Experiment: BLI (Fortebio)
row,Kd [nM],Binder
1,7.4,B1
2,7,B2
3,6.7,B3
4,6.9,B4
5,0.86,B5
6,12,B6
7,1.2,B7
8,1.1,B8
9,21,B9
10,7,B10
11,3.2,B11
12,6.1,B12
13,1.1,B13
14,1.2,B14
15,24,B15
16,11,B16
17,1.3,B17
18,1.2,B18
19,14,B19
20,8,B20
21,11,B21
22,10,B22

row,Kd [nM],Binder
1,1,B23
2,8.3,B24
3,1.1,B25
4,5.7,B26
5,1.2,B27
6,0.81,B28
7,1.1,B29
8,15,B30
9,1,B31
10,6.8,B32
11,1.8,B33
12,0.99,B34
13,1.1,B35
14,8.3,B36
15,1.1,B37
16,0.96,B38
17,1.3,B39
18,2,B40
19,0.88,B41
20,7.1,B42
21,1.2,B43
22,8.1,B44
